From US8450067B2, “Method for obtaining anti-idiotype antibodies” (Omrix Biopharmaceuticals Inc., priority 2002, dated 2013)

Legend:
[1] = molecular target: synthetic cyclic peptide (14) PPQKHLL; test: ELISA on coated Pep 14; control IgG 5 ug/ml
[2] = molecular target: literature peptide …; test: ELISA on coated Pep 2 (Table 3); control IgG 5 ug/ml
[3] = molecular target: literature peptide …; test: ELISA on coated Pep 6 (Table 3); control IgG 5 ug/ml
[4] = molecular target: synthetic cyclic peptide (13) DWLYSRS; test: ELISA on coated Pep 13; control IgG 1 ug/ml
[5] = molecular target: synthetic cyclic peptide (2) PPNHSHL; test: ELISA on coated Pep 2; control IgG 1 ug/ml
[6] = molecular target: literature peptide …; test: ELISA on coated Pep 3 (Table 3); control IgG 5 ug/ml
[7] = molecular target: synthetic cyclic peptide (8) PPPDLHA; test: ELISA on coated Pep 8; control IgG 5 ug/ml
[8] = molecular target: synthetic cyclic peptide (9) GTTQWVL; test: ELISA on coated Pep 9; control IgG 1 ug/ml
[9] = molecular target: literature peptide …; test: ELISA on coated Pep 8 (Table 3); control IgG 1 ug/ml
[10] = molecular target: literature peptide …; test: ELISA on coated Pep 6 (Table 3); control IgG 1 ug/ml
[11] = molecular target: synthetic cyclic peptide (4) ASTIRAG; test: ELISA on coated Pep 4; control IgG 5 ug/ml
[12] = molecular target: synthetic cyclic peptide (12) PLPDWRV; test: ELISA on coated Pep 12; control IgG 5 ug/ml
[13] = molecular target: synthetic cyclic peptide (3) AGLKNSQ; test: ELISA on coated Pep 3; control IgG 1 ug/ml
[14] = molecular target: literature peptide …; test: ELISA on coated Pep 10 (Table 3); control IgG 1 ug/ml
[15] = molecular target: literature peptide …; test: ELISA on coated Pep 8 (Table 3); control IgG 5 ug/ml
[16] = molecular target: synthetic cyclic peptide (1) KHETTET; test: ELISA on coated Pep 1 (Table 3); control IgG 5 ug/ml
[17] = molecular target: synthetic cyclic peptide (14) PPQKHLL; test: ELISA on coated Pep 14; control IgG 1 ug/ml
[18] = molecular target: literature peptide …; test: ELISA on coated Pep 2 (Table 3); control IgG 1 ug/ml
[19] = molecular target: literature peptide …; test: ELISA on coated Pep 3 (Table 3); control IgG 1 ug/ml
[20] = molecular target: literature peptide …; test: ELISA on coated Pep 10 (Table 3); control IgG 5 ug/ml
[21] = molecular target: synthetic cyclic peptide (5) VRVLLRS; test: ELISA on coated Pep 5; control IgG 1 ug/ml
[22] = molecular target: synthetic cyclic peptide (6) TQPPELP; test: ELISA on coated Pep 6; control IgG 1 ug/ml
[23] = molecular target: synthetic cyclic peptide (1) KHETTET; test: ELISA on coated Pep 1; control IgG 1 ug/ml
[24] = molecular target: synthetic cyclic peptide (5) VRVLLRS; test: ELISA on coated Pep 5; control IgG 5 ug/ml
[25] = molecular target: synthetic cyclic peptide (3) AGLKNSQ; test: ELISA on coated Pep 3; control IgG 5 ug/ml
[26] = molecular target: synthetic cyclic peptide (9) GTTQWVL; test: ELISA on coated Pep 9; control IgG 5 ug/ml
[27] = molecular target: synthetic cyclic peptide (4) ASTIRAG; test: ELISA on coated Pep 4; control IgG 1 ug/ml
[28] = molecular target: synthetic cyclic peptide (1) KHETTET; test: ELISA on coated Pep 1 (Table 3); control IgG 1 ug/ml
[29] = molecular target: synthetic cyclic peptide (7) LSQPERW; test: ELISA on coated Pep 7; control IgG 1 ug/ml
[30] = molecular target: literature peptide …; test: ELISA on coated Pep 4 (Table 3); control IgG 5 ug/ml
[31] = molecular target: literature peptide …; test: ELISA on coated Pep 7 (Table 3); control IgG 5 ug/ml
[32] = molecular target: synthetic cyclic peptide (1) KHETTET; test: ELISA on coated Pep 1; control IgG 5 ug/ml
[33] = molecular target: literature peptide …; test: ELISA on coated Pep 11 (Table 3); control IgG 1 ug/ml
[34] = molecular target: synthetic cyclic peptide (11) SLQRHPW; test: ELISA on coated Pep 11; control IgG 1 ug/ml
[35] = molecular target: synthetic cyclic peptide (15) KYKRKYP; test: ELISA on coated Pep 15; control IgG 1 ug/ml
[36] = molecular target: literature peptide …; test: ELISA on coated Pep 7 (Table 3); control IgG 1 ug/ml
[37] = molecular target: literature peptide …; test: ELISA on coated Pep 5 (Table 3); control IgG 5 ug/ml
[38] = molecular target: literature peptide …; test: ELISA on coated Pep 9 (Table 3); control IgG 1 ug/ml
[39] = molecular target: literature peptide …; test: ELISA on coated Pep 9 (Table 3); control IgG 5 ug/ml
[40] = molecular target: synthetic cyclic peptide (10) YGTPSSE; test: ELISA on coated Pep 10; control IgG 5 ug/ml
[41] = molecular target: literature peptide …; test: ELISA on coated Pep 11 (Table 3); control IgG 5 ug/ml
[42] = molecular target: synthetic cyclic peptide (8) PPPDLHA; test: ELISA on coated Pep 8; control IgG 1 ug/ml
[43] = molecular target: synthetic cyclic peptide (2) PPNHSHL; test: ELISA on coated Pep 2; control IgG 5 ug/ml
[44] = molecular target: literature peptide …; test: ELISA on coated Pep 5 (Table 3); control IgG 1 ug/ml
[45] = molecular target: synthetic cyclic peptide (15) KYKRKYP; test: ELISA on coated Pep 15; control IgG 5 ug/ml
[46] = molecular target: synthetic cyclic peptide (12) PLPDWRV; test: ELISA on coated Pep 12; control IgG 1 ug/ml
[47] = molecular target: literature peptide …; test: ELISA on coated Pep 4 (Table 3); control IgG 1 ug/ml
[48] = molecular target: synthetic cyclic peptide (7) LSQPERW; test: ELISA on coated Pep 7; control IgG 5 ug/ml
[49] = molecular target: synthetic cyclic peptide (10) YGTPSSE; test: ELISA on coated Pep 10; control IgG 1 ug/ml
[50] = molecular target: synthetic cyclic peptide (13) DWLYSRS; test: ELISA on coated Pep 13; control IgG 5 ug/ml
[51] = molecular target: synthetic cyclic peptide (11) SLQRHPW; test: ELISA on coated Pep 11; control IgG 5 ug/ml
[52] = molecular target: synthetic cyclic peptide (6) TQPPELP; test: ELISA on coated Pep 6; control IgG 5 ug/ml
[53] = tested on: anti-dsDNA antibody-positive SLE sera; settings: sera which cross react with ssDNA; cited from earlier work
[54] = tested on: immunoglobulin elution peak from a peptide column bound with peptide 707; test: ELISA of peptide column eluate with biotinylated peptides (707 column); format: binding, human; settings: FIG. 4; biotinylated peptide 1 μg/ml
Experimental: (§1) To measure the binding efficacy of peptide column eluates (706 and 707) the following ELISA was performed:
(§2) Microtiter plates (Costar, USA) were coated overnight at 2-8° C. with 10 μg/ml NeutrAvidin (Pierce, USA) suspended in 0.1M, pH 8.8, of carbonate-bicarbonate buffer (Sigma USA). The coating solution was removed, washed three times with washing buffer (1×PBS) and 200 μl of blocking solution (freshly prepared 1% I Block, Tropix, USA) per well was added and incubated for 1 hour at 37° C. Coated and blocked plates can be stored at −20° C. for a month before use.
(§3) Tested samples diluted in the blocking solution were mixed in a separate tube with 1 μg/ml (final concentration) of the appropriate biotinylated peptide and the mixture was incubated for 1 hour at 37° C. 100 μl from each reaction tube was then transferred to the blocked microtiter plate and incubated at 37° C. for ½ hour. A 100 μl of 1:5000 Alkaline Phosphatase conjugate goat anti human IgG (Heavy and light chain from Jackson, USA) diluted in the blocking buffer was applied into the microtiter well and incubated for 1 hour. […] The measurement was done photometrically at 405 nm.

[55] = tested on: immunoglobulin eluted from a peptide column bearing the peptide 706; test: ELISA of peptide column eluate with biotinylated peptides (706 column); format: binding, human; settings: FIG. 3; biotinylated peptide 1 μg/ml
Experimental: as §1, §2, §3

mice = settings: cited from earlier work
BALB/c neonatal mice = BALB/c neonatal mice immunized later with pCDR1 or the pathogenic auto-Ab; cited from earlier work

## IgG purified from one donor (negative control) (antibody)
[1]
  OD at 405 nm: 0.083 OD
[2]
  OD at 405 nm: 0.041 OD
[3]
  OD at 405 nm: 0.043 OD
[4]
  OD at 405 nm: 0.069 OD
[5]
  OD at 405 nm: 0.009 OD
[6]
  OD at 405 nm: 0.043 OD
[7]
  OD at 405 nm: 0.046 OD
[8]
  OD at 405 nm: 0.045 OD
[9]
  OD at 405 nm: 0.044 OD
[10]
  OD at 405 nm: 0.046 OD
[11]
  OD at 405 nm: 0.011 OD
[12]
  OD at 405 nm: 0.045 OD
[13]
  OD at 405 nm: 0.011 OD
[14]
  OD at 405 nm: 0.042 OD
[15]
  OD at 405 nm: 0.041 OD
[16]
  OD at 405 nm: 0.043 OD
[17]
  OD at 405 nm: 0.079 OD
[18]
  OD at 405 nm: 0.04 OD
[19]
  OD at 405 nm: 0.043 OD
[20]
  OD at 405 nm: 0.041 OD
[21]
  OD at 405 nm: 0.009 OD
[22]
  OD at 405 nm: 0.007 OD
[23]
  OD at 405 nm: 0.013 OD
[24]
  OD at 405 nm: 0.008 OD
[25]
  OD at 405 nm: 0.011 OD
[26]
  OD at 405 nm: 0.044 OD
[27]
  OD at 405 nm: 0.013 OD
[28]
  OD at 405 nm: 0.044 OD
[29]
  OD at 405 nm: 0.045 OD
[30]
  OD at 405 nm: 0.039 OD
[31]
  OD at 405 nm: 0.052 OD
[32]
  OD at 405 nm: 0.016 OD
[33]
  OD at 405 nm: 0.043 OD
[34]
  OD at 405 nm: 0.068 OD
[35]
  OD at 405 nm: 0.037 OD
[36]
  OD at 405 nm: 0.043 OD
[37]
  OD at 405 nm: 0.048 OD
[38]
  OD at 405 nm: 0.044 OD
[39]
  OD at 405 nm: 0.045 OD
[40]
  OD at 405 nm: 0.048 OD
[41]
  OD at 405 nm: 0.041 OD
[42]
  OD at 405 nm: 0.043 OD
[43]
  OD at 405 nm: 0.009 OD
[44]
  OD at 405 nm: 0.043 OD
[45]
  OD at 405 nm: 0.068 OD
[46]
  OD at 405 nm: 0.043 OD
[47]
  OD at 405 nm: 0.04 OD
[48]
  OD at 405 nm: 0.048 OD
[49]
  OD at 405 nm: 0.06 OD
[50]
  OD at 405 nm: 0.078 OD
[51]
  OD at 405 nm: 0.068 OD
[52]
  OD at 405 nm: 0.009 OD

## RLTSSLRYNP [synthetic peptide mimotope of dsDNA (Sun et al. 2001)]
[53]
  share of anti-dsDNA antibody-positive SLE sera that recognize the peptide: 88%

## TGYYMQWVKQSPEKSLEWIG [Pep 706]
[54]
  binding of 707 column eluate to biotinylated peptide: reacted
[55]
  binding of 706 column eluate to biotinylated peptide: reacted specifically in a linear fashion
mice; experimental SLE mice
  effect on disease in experimental SLE mice: ameliorate the disease
mice; responder mice (BALB/c, SJL)
  induction of SLE-like disease in mice: induced a mild SLE-like disease
BALB/c neonatal mice
  auto-Ab production: prevent auto-Ab production
